Reference: patent publication US20240336663

What was measured:
[1] = system: ZFR11 (Zinc Finger 11-HP1a-KRAB) (synthetic); assay: cell_activity; conditions: N2A cells, transfection, qPCR; indirect (repression); text labels ZFR11 as SEQ 10 but the listing gives Zinc Finger 11-HP1a-KRAB as SEQ 11
[2] = system: ZFR3 (Zinc Finger 3-HP1a-KRAB) (synthetic); assay: cell_activity; conditions: N2A cells, transfection, qPCR; indirect (repression); text labels ZFR3 as SEQ 11 but the listing gives Zinc Finger 3-HP1a-KRAB as SEQ 10
Sequence of ZFR3 (Zinc Finger 3-HP1a-KRAB) (synthetic) (chain, as listed by the source): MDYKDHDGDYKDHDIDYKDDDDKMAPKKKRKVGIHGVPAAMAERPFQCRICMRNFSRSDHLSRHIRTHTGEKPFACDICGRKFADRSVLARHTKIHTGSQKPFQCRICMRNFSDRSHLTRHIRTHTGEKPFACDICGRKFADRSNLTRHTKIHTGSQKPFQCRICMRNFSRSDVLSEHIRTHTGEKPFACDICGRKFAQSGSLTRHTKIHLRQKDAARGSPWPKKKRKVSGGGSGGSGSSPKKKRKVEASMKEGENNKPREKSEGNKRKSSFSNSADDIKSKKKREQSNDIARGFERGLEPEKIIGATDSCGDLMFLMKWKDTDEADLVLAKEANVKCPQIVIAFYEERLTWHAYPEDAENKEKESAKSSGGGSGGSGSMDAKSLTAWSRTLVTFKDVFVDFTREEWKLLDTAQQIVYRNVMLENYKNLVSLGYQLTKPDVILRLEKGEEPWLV

Sequence of ZFR11 (Zinc Finger 11-HP1a-KRAB) (synthetic) (chain, as listed by the source): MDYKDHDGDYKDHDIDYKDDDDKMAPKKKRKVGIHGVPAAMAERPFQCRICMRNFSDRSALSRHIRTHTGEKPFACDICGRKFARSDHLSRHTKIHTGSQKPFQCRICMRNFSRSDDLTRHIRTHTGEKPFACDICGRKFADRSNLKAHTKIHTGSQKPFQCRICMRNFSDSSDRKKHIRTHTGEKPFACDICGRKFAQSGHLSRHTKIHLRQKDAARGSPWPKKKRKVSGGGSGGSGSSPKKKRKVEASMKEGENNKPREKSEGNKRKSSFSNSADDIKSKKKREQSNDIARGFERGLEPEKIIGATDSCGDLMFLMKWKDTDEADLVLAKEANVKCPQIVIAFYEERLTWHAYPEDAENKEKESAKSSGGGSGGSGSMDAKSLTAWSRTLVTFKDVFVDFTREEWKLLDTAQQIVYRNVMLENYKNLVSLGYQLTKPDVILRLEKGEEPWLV

Substance “mouse Myd88 promoter target region (20 nt target of each ZF not individually printed)” has a relative Myd88 expression (fold Myd88 expression) [1] of 0.21 and a relative Myd88 expression (fold Myd88 expression) [2] of 0.22.
